Measurements: US20220089743A1 (Chugai, published 2022)
Read-outs that look alike come from different tables or passages of the source.

Key:
[1] = biological target: HLA-DQ2.2 on HBBB2.2 cells loaded with 33 mer gliadin peptide (human; wheat); test: cell-based or functional assay
[2] = biological target: T1, HLA-DQ2.5 on IHW09023 cells loaded with gamma 2 gliadin peptide (human; wheat); test: cell-based or functional assay
[3] = biological target: T2, HLA-DQ2.5 on IHW09023 cells loaded with gamma 1 gliadin peptide (human; wheat); test: cell-based or functional assay
[4] = biological target: T3, HLA-DQ2.5 on IHW09023 cells loaded with 33 mer gliadin peptide (human; wheat); test: cell-based or functional assay
[5] = biological target: T4, HLA-DQ2.5 on IHW09023 cells loaded with BC hordein peptide (human; barley); test: cell-based or functional assay
[6] = biological target: T5, HLA-DQ2.5 on IHW09023 cells loaded with omega1/2 gliadin peptide (human; wheat); test: cell-based or functional assay
[7] = biological target: T6, HLA-DQ2.5 on IHW09023 cells loaded with gamma 4a gliadin peptide (human; wheat); test: cell-based or functional assay
[8] = biological target: T7, HLA-DQ2.5 on IHW09023 cells loaded with gamma 4d gliadin peptide (human; wheat); test: cell-based or functional assay
[9] = biological target: T8, HLA-DQ2.5 on IHW09023 cells loaded with gamma 3 gliadin peptide (human; wheat); test: cell-based or functional assay
HLA-DR on Ba/F3 cells = biological target: T9, HLA-DR on Ba/F3 cells (human, UniProt P01903 26-216; P79483 30-227, limits assumed); test: FACS, Ba/F3 cells; raw MFI
T9 construct: whole, on cells; also called Ba/F3-HLA-DR
T9 MHC II alpha: not shown
T9 MHC II beta: not shown

HLA-DP on Ba/F3 cells = biological target: T10, HLA-DP on Ba/F3 cells (human, UniProt P20036 29-222; P04440 30-225, limits assumed); test: FACS, Ba/F3 cells; raw MFI
T10 construct: whole, on cells; also called Ba/F3-HLA-DP

HLA-DQ5.1 on Ba/F3 cells = biological target: T11, HLA-DQ5.1 on Ba/F3 cells (human, limits assumed); test: FACS, Ba/F3 cells; raw MFI
T11 construct: whole, on cells; also called Ba/F3-HLA-DQ5.1
T11 MHC II alpha: not shown
T11 MHC II beta: not shown

HLA-DQ6.3 on Ba/F3 cells = biological target: T12, HLA-DQ6.3 on Ba/F3 cells (human, UniProt P01920 33-230, limits assumed); test: FACS, Ba/F3 cells; raw MFI
T12 construct: whole, on cells; also called Ba/F3-HLA-DQ6.3
T12 MHC II alpha: not shown
T12 MHC II beta: not shown

[10] = biological target: T1, HLA-DQ2.5 on IHW09023 cells loaded with …; test: cell-based or functional assay; remark: listed apart in the source
[11] = biological target: T2, HLA-DQ2.5 on IHW09023 cells loaded with …; test: cell-based or functional assay; remark: listed apart in the source
[12] = biological target: T3, HLA-DQ2.5 on IHW09023 cells loaded with …; test: cell-based or functional assay; remark: listed apart in the source
[13] = biological target: T4, HLA-DQ2.5 on IHW09023 cells loaded with …; test: cell-based or functional assay; remark: listed apart in the source
[14] = biological target: T5, HLA-DQ2.5 on IHW09023 cells loaded with …; test: cell-based or functional assay; remark: listed apart in the source
[15] = biological target: T6, HLA-DQ2.5 on IHW09023 cells loaded with …; test: cell-based or functional assay; remark: listed apart in the source
[16] = biological target: T7, HLA-DQ2.5 on IHW09023 cells loaded with …; test: cell-based or functional assay; remark: listed apart in the source
[17] = biological target: T8, HLA-DQ2.5 on IHW09023 cells loaded with …; test: cell-based or functional assay; remark: listed apart in the source
HLA-DQ7.5 on Ba/F3 cells = biological target: T13, HLA-DQ7.5 on Ba/F3 cells (human, UniProt P01909 24-216; P01920 33-230, limits assumed); test: FACS, Ba/F3 cells; %MFI with IC17dK 0 and DQN0139bb 100
T13 construct: whole, on cells; also called Ba/F3-HLA-DQ7.5

HLA-DQ2.2 on Ba/F3 cells = biological target: T14, HLA-DQ2.2 on Ba/F3 cells (human, UniProt P01909 24-216, limits assumed); test: as above
T14 construct: whole, on cells; also called Ba/F3-HLA-DQ2.2
T14 MHC II alpha: not shown
T14 MHC II beta: not shown

HLA-DQ8 on Ba/F3 cells = biological target: T15, HLA-DQ8 on Ba/F3 cells (human, UniProt P01909 24-216; P01920 33-230, limits assumed); test: as above
T15 construct: whole, on cells; also called Ba/F3-HLA-DQ8
T15 MHC II alpha: not shown
T15 MHC II beta: not shown

HLA-DQ2.5 on Ba/F3 cells = biological target: T16, HLA-DQ2.5 on Ba/F3 cells (human, UniProt P01909 24-216, limits assumed); test: as above
T16 construct: whole, on cells; MHC class II without a fused peptide; also called Ba/F3-HLA-DQ2.5

HLA-DQ7.3 on Ba/F3 cells = biological target: T17, HLA-DQ7.3 on Ba/F3 cells (human, UniProt P01909 24-216; P01920 33-230, limits assumed); test: as above
T17 construct: whole, on cells; also called Ba/F3-HLA-DQ7.3
T17 MHC II alpha: not shown
T17 MHC II beta: not shown

T10 sequence (P20036 29-222 limits assumed, chain 1 of 4, other chains not shown): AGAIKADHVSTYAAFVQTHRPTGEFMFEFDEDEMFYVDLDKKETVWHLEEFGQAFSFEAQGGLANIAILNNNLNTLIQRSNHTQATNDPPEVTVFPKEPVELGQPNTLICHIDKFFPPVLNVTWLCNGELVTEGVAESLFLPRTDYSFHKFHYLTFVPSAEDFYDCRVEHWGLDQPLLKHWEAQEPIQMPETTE
T10 sequence (P04440 30-225 limits assumed, chain 2 of 4, other chains not shown): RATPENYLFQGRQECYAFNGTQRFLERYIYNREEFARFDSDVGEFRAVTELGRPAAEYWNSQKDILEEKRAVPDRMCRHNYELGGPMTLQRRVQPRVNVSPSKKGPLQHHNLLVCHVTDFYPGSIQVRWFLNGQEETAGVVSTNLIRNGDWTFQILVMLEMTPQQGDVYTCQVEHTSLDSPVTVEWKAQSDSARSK

B1: DQN0344H1013/L0620//DQN0385H1521/L0605-F6.v2 (bispecific antibody, V domains shown)
VH 1: QVQLVESGGGVVQPGRSLRLSCAASGFTFSSAYWMVWVRQAPGQGLEWMGAVYGGSDTTYYAKWTEGRFTISRDTSKNTLYLQMNSLRAEDTAVYYCAREPLNYYYYGELNVWGQGTLVTVSS
VL 1: DIQMTQSPSSLSASVGDRVTITCQATENIYSGLAWYQQKPGKAPKLLIYYVSTLAYGIPARFSGSGSGTDFTLTISSLEPEDFAVYYCQTYEDVSAVTFGQGTKVEIK
VH 2: QVQLVESGGGVVQPGRSLRLSCAASGFTFESWYFMSWVRQAPGKGLEWVASIDTGSGSIDYAEWVEGRFTISRDNSKNTLYLQMNSLRAEDTAVYYCARDIGIDYNFWGPGTLVTVSS
VL 2: DIQMTQSPSSLSASVGDRVTITCQTTQSISSYLNWYQQKPGQPPKLLIYYASTKAEGIPARFSGSGSGTDFTLTISSLEPEDFAVYYCHYGISKVSFGQGTKVEIK
[1]
  IC50, HLA-DQ2.2, α1a gliadin TCR, 25 µM 33mer gliadin: 1.16 ng/mL
  IC50, HLA-DQ2.2, α2 gliadin TCR, 1 µM 33mer gliadin: 6.51 ng/mL
[2]
  IC50, γ2 gliadin TCR, 250 nM γ2 gliadin: 785 ng/mL
[3]
  IC50, γ1 gliadin TCR, 250 nM γ1 gliadin: 1.9 ng/mL
[4]
  IC50, α1a gliadin TCR, 250 nM 33mer gliadin: 0.6 ng/mL
  IC50, α1b gliadin TCR, 250 nM 33mer gliadin: 1.81 ng/mL
  IC50, α2 gliadin TCR, 250 nM 33mer gliadin: 0.33 ng/mL
[5]
  IC50, BC hordein TCR, 250 nM BC hordein: 11.4 ng/mL
[6]
  IC50, ω1 gliadin TCR, 25 µM ω1/2 gliadin: 1.96 ng/mL
  IC50, ω2 gliadin TCR, 250 nM ω1/2 gliadin: 0.2 ng/mL
[7]
  IC50, γ4a gliadin TCR, 25 µM γ4a gliadin: 1250 ng/mL
[8]
  IC50, γ4d gliadin TCR, 100 µM γ4d gliadin: 9.23 ng/mL
[9]
  IC50, γ3 gliadin TCR, 100 µM γ3 gliadin: 1.21 ng/mL

B2: DQN0344H1013/L0620//DQN0385H1270/L0681-F6.v2 (bispecific antibody, V domains shown)
VH 1: QVQLVESGGGVVQPGRSLRLSCAASGFTFSSAYWMVWVRQAPGQGLEWMGAVYGGSDTTYYAKWTEGRFTISRDTSKNTLYLQMNSLRAEDTAVYYCAREPLNYYYYGELNVWGQGTLVTVSS
VL 1: DIQMTQSPSSLSASVGDRVTITCQATENIYSGLAWYQQKPGKAPKLLIYYVSTLAYGIPARFSGSGSGTDFTLTISSLEPEDFAVYYCQTYEDVSAVTFGQGTKVEIK
VH 2: QVQLVESGGGVVQPGRSLRLSCAASGFTFSEWYFMSWVRQAPGKGLEWVASIDTGSGSIDYAEWVEGRFTISRDNSKNTLYLQMNSLRAEDTAVYYCARDIGIDYNFWGPGTLVTVSS
VL 2: DIQMTQSPSSLSASVGDRVTITCQTTQSISSYLNWYQQKPGQPPKLLIYYASTKAEGIPARFSGSGLGTDFTLTISSLEPEDFAVYYCHYGISKVSFGQGTKVEIK
[1]
  IC50, HLA-DQ2.2, α1a gliadin TCR, 25 µM 33mer gliadin: 1.62 ng/mL
  IC50, HLA-DQ2.2, α2 gliadin TCR, 1 µM 33mer gliadin: 4.6 ng/mL
[2]
  IC50, γ2 gliadin TCR, 250 nM γ2 gliadin: 280 ng/mL
[3]
  IC50, γ1 gliadin TCR, 250 nM γ1 gliadin: 5.85 ng/mL
[4]
  IC50, α1a gliadin TCR, 250 nM 33mer gliadin: 0.63 ng/mL
  IC50, α1b gliadin TCR, 250 nM 33mer gliadin: 1.42 ng/mL
  IC50, α2 gliadin TCR, 250 nM 33mer gliadin: 0.53 ng/mL
[5]
  IC50, BC hordein TCR, 250 nM BC hordein: 25.2 ng/mL
[6]
  IC50, ω1 gliadin TCR, 25 µM ω1/2 gliadin: 3.19 ng/mL
  IC50, ω2 gliadin TCR, 250 nM ω1/2 gliadin: 0.49 ng/mL
[7]
  IC50, γ4a gliadin TCR, 25 µM γ4a gliadin: 1980 ng/mL
[8]
  IC50, γ4d gliadin TCR, 100 µM γ4d gliadin: 27.8 ng/mL
[9]
  IC50, γ3 gliadin TCR, 100 µM γ3 gliadin: 4.84 ng/mL

B3: DQN0344H1013/L0620//DQN0385H1270/L0722-F6 (bispecific antibody)
heavy 1: QVQLVESGGGVVQPGRSLRLSCAASGFTFSSAYWMVWVRQAPGQGLEWMGAVYGGSDTTYYAKWTEGRFTISRDTSKNTLYLQMNSLRAEDTAVYYCAREPLNYYYYGELNVWGQGTLVTVSSASTKGPSVFPLAPSSKSTSGGTAALGCLVKDYFPEPVTVSWNSGALTSGVHTFPAVLKSSGLYSLSSVVTVPSSSLGTQTYICNVNHKPSNTKVDKRVEPKSCDKTHTCPPCPAPELRRGPSVFLFPPKPKDTLMISRTPEVTCVVVDVSHEDPEVKFNWYVDGVEVHNAKTKPREEQYNSTYRVVSVLTVLHQDWLNGKEYKCKVSNKALPAPIEKTISKAKGQPREPQVYTLPPSREEMTKNQVSLTCLVKGFYPSDIAVEWESNGQPENNYKTTPPYLDSDGSFFLYSKLTVDKSRWQEGNVFSCSVLHEALHAHYTREELSLSP
light 1: DIQMTQSPSSLSASVGDRVTITCQATENIYSGLAWYQQKPGKAPKLLIYYVSTLAYGIPARFSGSGSGTDFTLTISSLEPEDFAVYYCQTYEDVSAVTFGQGTKVEIKRTVAAPSVFIFPPSDEQLKSGTAEVVCLLNNFYPREAKVQWKVDNALQSGNSEESVTEQDSKDSTYSLSSTLTLSKADYEKHKVYACEVTHQGLSSPVTKSFNRGEC
heavy 2: QVQLVESGGGVVQPGRSLRLSCAASGFTFSEWYFMSWVRQAPGKGLEWVASIDTGSGSIDYAEWVEGRFTISRDNSKNTLYLQMNSLRAEDTAVYYCARDIGIDYNFWGPGTLVTVSSASTKGPSVFPLAPSSKSTSGGTAALGCLVEDYFPEPVTVSWNSGALTSGVHTFPAVLESSGLYSLSSVVTVPSSSLGTKTYICNVNHKPSNTKVDKRVEPKSCDKTHTCPPCPAPELRRGPSVFLFPPKPKDTLMISRTPEVTCVVVDVSHEDPEVKFNWYVDGVEVHNAKTKPREEQYNSTYRVVSVLTVLHQDWLNGKEYKCKVSNKALPAPIEKTISKAKGQPREPQVYTLPPSRKEMTKNQVSLTCLVKGFYPSDIAVEWESNGQPENNYKTTPPYLDSDGSFFLYSKLTVDKSRWQQGNVFSCSVLHEALHAHYTRKELSLSP
light 2: DIQMTQSPSSLSASVGDRVTITCQTTQSISSYLNWYQQKPGQPPKLLIYYASTKAEGIPARFSGSGLGTDFTLTISSLQPEDFAVYYCHYGISKVSFGQGTKVEIKRTVAAPSVFIFPPSDEQLKSGTAKVVCLLNNFYPREAKVQWKVDNALQSGNSKESVTEQDSKDSTYSLSSTLTLSKADYEKHKVYACEVTHQGLSSPVTKSFNRGEC
HLA-DR on Ba/F3 cells
  binding result: no binding (tested: 0.05 ug/mL)
HLA-DP on Ba/F3 cells
  binding result: no binding (tested: 0.05 ug/mL)
HLA-DQ5.1 on Ba/F3 cells
  binding result: no binding (tested: 0.05 ug/mL)
HLA-DQ6.3 on Ba/F3 cells
  binding result: no binding (tested: 0.05 ug/mL)
[10]
  IC50, γ2 gliadin TCR, 250 nM γ2 gliadin: 277 ng/mL
[11]
  IC50, γ1 gliadin TCR, 250 nM γ1 gliadin: 1.03 ng/mL
[12]
  IC50, α1a gliadin TCR, 250 nM 33mer gliadin: 0.27 ng/mL
  IC50, α1b gliadin TCR, 250 nM 33mer gliadin: 1.25 ng/mL
  IC50, α2 gliadin TCR, 250 nM 33mer gliadin: 0.33 ng/mL
[13]
  IC50, BC hordein TCR, 250 nM BC hordein: 9.7 ng/mL
[14]
  IC50, ω1 gliadin TCR, 25 µM ω1/2 gliadin: 2.17 ng/mL
  IC50, ω2 gliadin TCR, 250 nM ω1/2 gliadin: 0.22 ng/mL
[15]
  IC50, γ4a gliadin TCR, 25 µM γ4a gliadin: 1150 ng/mL
[16]
  IC50, γ4d gliadin TCR, 100 µM γ4d gliadin: 10.1 ng/mL
[17]
  IC50, γ3 gliadin TCR, 100 µM γ3 gliadin: 3.31 ng/mL
HLA-DQ7.5 on Ba/F3 cells
  binding result: no binding (tested: 0.05 ug/mL)
HLA-DQ2.2 on Ba/F3 cells
  binding result: no binding (tested: 0.05 ug/mL)
HLA-DQ8 on Ba/F3 cells
  binding result: no binding (tested: 0.05 ug/mL)
HLA-DQ2.5 on Ba/F3 cells
  binding result: no binding (tested: 0.05 ug/mL)
HLA-DQ7.3 on Ba/F3 cells
  binding result: no binding (tested: 0.05 ug/mL)
